{"source": "patent US20210395379A1", "about": "(NUMAB THERAPEUTICS, published 2021)", "binders": {"B1": {"name": "PRO1480 (other)", "chain": "DIQMTQSPASLSASVGDRVTITCQASQSIGTYLAWYQQKPGKPPKLLIYRAFILASGVPSRFSGSGSGTDFTLTISSLQPEDFATYYCQSNFYSDSTTIGPNAFGTGTKVTVLGGGGGSEVQLVESGGGLVQPGGSLRLSCAASGFSFSANYYPCWVRQAPGKGLEWIGCIYGGSSDITYDANWTKGRFTISRDNSKNTVYLQMNSLRAEDTAVYYCARSAWYSGWGGDLWGQGTLVTVSSGGGGSGGGGSGGGGSGGGGSIQMTQSPSSLSASVGDRVTITCQASQSISNRLAWYQQKPGKAPKLLIYSASTLASGVPSRFSGSGSGTDFTLTISSLQPEDFATYYCQSTYYGNDGNAFGTGTKVTVLGGGGGSEVQLVESGGGLVQPGGSLRLSCAASGFSFNSDYWIYWVRQAPGKGLEWIASIYGGSSGNTQYASWAQGRFTISRDNSKNTVYLQMNSLRAEDTAVYFCARGYVDYGGATDLWGQGTLVTVSSGGGGSGGGGSIQMTQSPSSLSASVGDRVTITCQSSESVYSNNQLSWYQQKPGQPPKLLIYDASDLASGVPSRFSGSGSGTDFTLTISSLQPEDFATYYCAGGFSSSSDTAFGGGTKLTVLGGGGGSGGGGSGGGGSGGGGSEVQLVESGGGLVQPGGSLRLSCAASGFSLSSNAMGWVRQAPGKGLEYIGIISVGGFTYYASWAKGRFTISRDNSKNTVYLQMNSLRAEDTATYFCARDRHGGDSSGAFYLWGQGTLVTVSS", "notes": "Trispecific scDb-scFv; CD137 arm derived from 38-27-A11 sc02; also called PRO1480 (38-27-A11); trispecific anti-PDL1xCD137xHSA scDb-scFv"}, "B2": {"name": "PRO1481 (other)", "chain": "B1 chain with V121S, Y216F, Q233P, I262F, M264L, A303P", "notes": "Trispecific scDb-scFv; CD137 arm derived from 38-27-A11 sc03"}, "B3": {"name": "PRO1704 (38-27-A11 sc07) (scFv)", "scFv": "DIQMTQSPSSLSASVGDRVTITCQASQSISNRLAWYQQKPGKAPKLLIYSASTLASGVPSRFSGSGSGTDFTLTISSLQPEDFATYYCQSTYYGNDGNAFGCGTKVTVLGGGGGSGGGGSGGGGSGGGGSEVQLVESGGGLVQPGGSLRLSCAASGFSFSANYYPCWVRQAPGKCLEWIGCIYGGSSDITYDANWTKGRFTISRDNSKNTVYLQMNSLRAEDTAVYYCARSAWYSGWGGDLWGQGTLVTVSS", "notes": "VL-linker-VH, CDR graft with interdomain disulfide (VL-T141C)"}, "B4": {"name": "PRO885 (bispecific antibody)", "chain": "DIQMTQSPSSLSASVGDRVTITCQASQSINDYLAWYQQKPGKAPKLLIYKASTLASGVPSRFSGSGSGTDFTLTISSLQPEDFATYYCQQGYIITDIDNVFGTGTKVTVLGGGGGSQVQLQESGPGLVKPSETLSLTCKVSGFSFSNSYWICWIRQPPGKGLEWIGCTFVGSSDSTYYANWAKGRVTISVDSSKNQFSLKLSSVTAADTAVYYCARHPSDAVYGYANNLWGQGTLVTVSSGGGGSGGGGSGGGGSGGGGSIQMTQSPSSLSASVGDRVTITCQASQSINNVLAWYQQKPGKAPKLLIYRASTLASGVPSRFSGSGSGTDFTLTISSLQPEDFATYYCQSSYGNYGDFGTGTKVTVLGGGGGSQVQLQESGPGLVKPSETLSLTCKVSGFSFSSGYDMCWIRQPPGKGLEWIGCVVAGSVDITYYASWAKGRVTISVDSSKNQFSLKLSSVTAADTAVYYCARKDAYSDAFNLWGQGTLVTVSS"}, "B5": {"name": "PRO1186 (other)", "chain": "DIQMTQSPSSLSASVGDRVTITCQASQSIGTYLAWYQQKPGKAPKLLIYRAFILASGVPSRFSGSGSGTDFTLTISSLQPEDFATYYCQSNFYSDSTTIGPNAFGTGTKVTVLGGGGGSQVQLQESGPGLVKPSETLSLTCKVSGFSFSNSYWICWIRQPPGKGLEWIGCTFVGSSDSTYYANWAKGRVTISVDSSKNQFSLKLSSVTAADTAVYYCARHPSDAVYGYANNLWGQGTLVTVSSGGGGSGGGGSGGGGSGGGGSDIQMTQSPSSLSASVGDRVTITCQASQSINNVLAWYQQKPGKAPKLLIYRASTLASGVPSRFSGSGSGTDFTLTISSLQPEDFATYYCQSSYGNYGDFGTGTKVTVLGGGGGSQVQLQESGPGLVKPSETLSLTCKVSGFSFNSDYWIYWIRQPPGKGLEWIGSIYGGSSGNTQYASWAQGRVTISVDSSKNQFSLKLSSVTAADTAVYYCARGYVDYGGATDLWGQGTLVTVSSGGGGSGGGGSVVMTQSPSSLSASVGDRVTITCQASQIISSRSAWYQQKPGQPPKLLIYQASKLASGVPSRFSGSGSGTDFTLTISSLQPEDFATYYCQCTYIDSNFGAFGGGTKLTVLGGGGGSGGGGSGGGGSGGGGSEVQLVESGGGLVQPGGSLRLSCAASGFSFSSSYWICWVRQAPGKGLEWVGCVFTGDGTTYYASWAKGRFTISRDNSKNTVYLQMNSLRAEDTATYFCARPVSVYYYGMDLWGQGTLVTVSS", "notes": "Trispecific scDb-scFv with a different anti-CD137 domain; also called PR01186"}, "B6": {"name": "PRO1359 with TRP 233 mutated to alanine (scFv)", "scFv": "B3 scFv with C102T, C175G, W233A"}, "B7": {"name": "PRO1359 with TYR 191 mutated to alanine (scFv)", "scFv": "B3 scFv with C102T, C175G, Y191A"}}, "key": {"human serum albumin": {"target": "T1, human serum albumin (human, UniProt P02768 25-609)", "T1 construct": "Amine-coupled to a CM5 chip; also called human SA; HSA", "experiment": "SPR (Biacore T200), serum albumin amine-coupled to CM5 chip, pH 5.5", "procedure": "Affinity of molecules to serum albumin (SA) of the different species was determined by SPR measurements using a Biacore T200 device (GE Healthcare). SA was directly coupled to a CM5 sensor chip (GE Healthcare) using amine coupling chemistry. […] The assay was run in a 1×PBS-Tween buffer at pH 5.5."}, "Fc tagged human PD-L1": {"target": "T2, Fc tagged human PD-L1 (human, UniProt Q9NZQ7 19-238, limits assumed)", "T2 construct": "not shown: Fc tag", "experiment": "SPR (Biacore T200), Fc tagged PDL1 captured by anti-human Fc, molecule as analyte 0.18-45 nM", "procedure": "(§1) Affinity to PDL1 was determined by SPR measurements using a Biacore T200 device (GE Healthcare). In this experiment, Fc tagged PDL1 from different species was captured using the Human Antibody Capture kit from GE Healthcare (cat. BR-1008-39). After each analyte injection cycle, the anti-human Fc-specific IgG was regenerated and new antigen was captured. For all formats, the multispecific molecules were injected as analyte using a dose response multi-cycle kinetic assay with concentrations of the analyte ranging from 0.18 to 45 nM (two-fold dilutions steps) diluted in running buffer. Association and dissociation time were set to 300 s and 720 s, respectively. The apparent dissociation (kd) and association (kₐ) rate constants and the apparent dissociation equilibrium constant (KD) were calculated using one-to-one Langmuir binding model. Affinity to CD137 of the different species was determined using the identical setup as for PDL1 with the exception that CD137-Fc chimeric proteins from different species were captured by the immobilized antibody."}, "[1]": {"target": "human CD137 expressed on Jurkat cells (human, UniProt Q07011 24-255)", "experiment": "cell-based or functional assay"}, "[2]": {"target": "T3, Fc tagged human CD137 (R&D Systems, cat. 838-4B-100) (human, UniProt Q07011 24-186)", "T3 construct": "Bought Fc chimera; also called CD137 Fc chimera; human CD137 (tagged with Fc); not shown: Fc tag of the bought chimera", "experiment": "SPR (Biacore T200), Fc tagged human CD137 captured by anti-human Fc, scFv as analyte", "procedure": "In this experiment, Fc tagged human CD137 (R&D Systems, cat. 838-4B-100) was captured using the Human Antibody Capture kit from GE healthcare (cat. BR-1008-39). After each analyte injection cycle, the anti-human Fc-specific IgG was regenerated and new antigen was captured. The scFvs were injected as analyte using a dose response multi-cycle kinetic assay over the captured CD137 with concentrations of the analyte ranging from 0.19 to 45 nM (three-fold dilutions steps) diluted in running buffer. Association and dissociation time were set to 300 s and 720 s, respectively. The obtained sensorgrams were fitted using the 1:1 binding model."}, "[3]": {"target": "T3, Fc tagged human CD137 (R&D Systems, …)", "experiment": "SPR (Biacore T200), CD137-Fc captured by anti-human Fc, molecule as analyte 0.18-45 nM", "procedure": "as §1"}, "[4]": {"target": "CD137 (form used for the alanine mutants of PRO1359 not stated) (Homo sapiens (Human), UniProt Q07011 24-186, limits assumed)", "experiment": "assay not described"}}, "note": "Residue numbers refer to the chain shown, from its start. Names may count otherwise.", "data": [{"binder": "B1", "values": [{"measurement": "Kd", "setting": "human serum albumin", "result": 1.03, "unit": "nM"}, {"measurement": "koff", "setting": "human serum albumin", "result": 0.000337, "unit": "s⁻¹"}, {"measurement": "Kd", "setting": "Fc tagged human PD-L1", "result": 0.015, "unit": "nM"}, {"measurement": "koff", "setting": "Fc tagged human PD-L1", "result": "5.1e-05", "unit": "s⁻¹"}, {"measurement": "IC50 (ng/ml), activation of NF-kB reporter gene, HCC827 + IFNg, 6 h, with HSA", "setting": "[1]", "result": 6.44, "unit": "ng/mL"}, {"measurement": "IC50 (ng/ml), activation of NF-kB reporter gene, HCC827 + IFNg, 24 h, with HSA", "setting": "[1]", "result": 4.67, "unit": "ng/mL"}]}, {"binder": "B2", "values": [{"measurement": "koff", "setting": "Fc tagged human PD-L1", "result": "4.3e-05", "unit": "s⁻¹"}, {"measurement": "IC50 (ng/ml), activation of NF-kB reporter gene, HCC827 + IFNg, 6 h, with HSA", "setting": "[1]", "result": 7.22, "unit": "ng/mL"}, {"measurement": "IC50 (ng/ml), activation of NF-kB reporter gene, HCC827 + IFNg, 24 h, with HSA", "setting": "[1]", "result": 5.51, "unit": "ng/mL"}]}, {"binder": "B3", "values": [{"measurement": "Kd", "setting": "[2]", "result": 3.07, "unit": "nM"}, {"measurement": "koff", "setting": "[2]", "result": 0.00353, "unit": "s⁻¹"}, {"measurement": "kon", "setting": "[2]", "result": "1.15e+06", "unit": "M⁻¹ s⁻¹"}]}, {"binder": "B4", "values": [{"measurement": "Kd", "setting": "[3]", "result": 3.2, "unit": "nM"}, {"measurement": "Kd", "setting": "Fc tagged human PD-L1", "result": 0.065, "unit": "nM"}]}, {"binder": "B5", "values": [{"measurement": "kon", "setting": "[3]", "result": 190000, "unit": "M⁻¹ s⁻¹"}]}, {"binder": "B6", "values": [{"measurement": "fold reduction of affinity against unmutated PRO1359", "setting": "[4]", "result": "> 1000", "unit": "fold"}]}, {"binder": "B7", "values": [{"measurement": "fold reduction of affinity against unmutated PRO1359", "setting": "[4]", "result": "> 1000", "unit": "fold"}]}]}
